Experiment [1] deals with T1, PRO20040 (human IL-17RH2 receptor) (human, UniProt Q8NAC3-3 21-452).
T1 sequence (looked up): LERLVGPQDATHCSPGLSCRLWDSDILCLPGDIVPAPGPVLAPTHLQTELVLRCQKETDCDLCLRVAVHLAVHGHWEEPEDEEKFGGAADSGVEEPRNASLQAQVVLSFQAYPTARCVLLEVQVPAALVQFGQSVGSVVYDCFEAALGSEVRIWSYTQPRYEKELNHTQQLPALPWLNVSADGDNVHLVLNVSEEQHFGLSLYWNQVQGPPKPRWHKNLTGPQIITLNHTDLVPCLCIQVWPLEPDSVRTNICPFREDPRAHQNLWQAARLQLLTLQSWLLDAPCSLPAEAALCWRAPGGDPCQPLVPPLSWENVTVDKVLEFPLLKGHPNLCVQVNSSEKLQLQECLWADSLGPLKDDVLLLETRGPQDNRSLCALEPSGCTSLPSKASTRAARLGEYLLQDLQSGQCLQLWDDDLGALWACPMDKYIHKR
Description: receptor/ligand screen, FIG. 14. An excerpt: A PRO polypeptide of the present invention suspected of being a ligand for a receptor is expressed as a fusion protein containing the Fc domain of human IgG (an immunoadhesin). Receptor-ligand binding is detected by allowing interaction of the immunoadhesin polypeptide with cells (e.g. Cos cells) expressing candidate PRO polypeptide receptors and visualization of bound immunoadhesin with fluorescent reagents directed toward the Fc fusion domain and examination by microscope. Cells expressing candidate receptors are produced by transient transfection, in parallel, of defined subsets of a library of cDNA expression vectors encoding PRO polypeptides that may function as receptor molecules. Cells are then incubated for 1 hour in the presence of the PRO polypeptide immunoadhesin being tested for possible receptor binding. The cells are then washed and fixed with paraformaldehyde. The cells are then incubated with fluorescent conjugated antibody directed against the Fc portion of the PRO polypeptide immunoadhesin (e.g. FITC conjugated goat anti-human-Fc antibody). The cells are then washed again and examined by microscope. A positive interaction is judged by the presence of fluorescent labeling of cells transfected with cDNA encoding a particular PRO polypeptide receptor or pool of receptors and an absence of similar fluorescent labeling of similarly prepared cells that have been transfected with other cDNA or pools of cDNA. If a defined pool of cDNA expression vectors is judged to be positive for interaction with a PRO polypeptide immunoadhesin, the individual cDNA species that comprise the pool are tested individually (the pool is “broken down”) to determine the specific cDNA that encodes a receptor able to interact with the PRO polypeptide immunoadhesin.
In another embodiment of this assay, an epitope-tagged potential ligand PRO polypeptide (e.g., 8 histidine “His” tag) is allowed to interact with a panel of potential receptor PRO polypeptide molecules that have been expressed as fusions with the Fc domain of human IgG (immunoadhesins). Following a 1 hour co-incubation with the epitope tagged PRO polypeptide, the candidate receptors are each immunoprecipitated with protein A beads and the beads are washed. Potential ligand interaction is determined by Western blot analysis of the immunoprecipitated complexes with antibody directed towards the epitope tag.

Experiment [2] deals with T2, PRO20040 (human IL-17RH2 receptor) (Homo sapiens, UniProt Q8NAC3).
T2 sequence (Q8NAC3 21-791): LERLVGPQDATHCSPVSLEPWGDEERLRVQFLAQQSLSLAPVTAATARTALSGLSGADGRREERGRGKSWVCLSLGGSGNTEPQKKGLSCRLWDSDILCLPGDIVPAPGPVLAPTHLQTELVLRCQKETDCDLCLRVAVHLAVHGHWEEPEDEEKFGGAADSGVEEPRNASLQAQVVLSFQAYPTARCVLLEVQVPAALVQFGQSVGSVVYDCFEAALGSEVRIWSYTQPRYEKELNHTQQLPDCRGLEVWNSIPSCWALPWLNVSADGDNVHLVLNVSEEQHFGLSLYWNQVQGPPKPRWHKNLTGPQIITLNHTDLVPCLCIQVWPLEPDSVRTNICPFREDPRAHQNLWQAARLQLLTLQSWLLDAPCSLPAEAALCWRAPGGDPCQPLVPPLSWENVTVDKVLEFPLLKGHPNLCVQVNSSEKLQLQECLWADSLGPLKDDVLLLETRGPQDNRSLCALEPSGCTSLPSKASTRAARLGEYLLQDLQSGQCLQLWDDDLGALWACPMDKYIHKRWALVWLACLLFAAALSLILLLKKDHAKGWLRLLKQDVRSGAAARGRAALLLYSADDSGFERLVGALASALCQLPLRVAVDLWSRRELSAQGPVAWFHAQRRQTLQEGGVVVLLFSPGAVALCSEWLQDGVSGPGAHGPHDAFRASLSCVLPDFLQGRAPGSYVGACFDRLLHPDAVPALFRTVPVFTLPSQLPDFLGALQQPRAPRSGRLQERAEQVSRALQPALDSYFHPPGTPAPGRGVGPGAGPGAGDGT
Briefly: Receptor/ligand interaction screening assay (immunoadhesin). It counts as binding. How it is done: (§1) In general, the assay is performed as follows. A PRO polypeptide of the present invention suspected of being a ligand for a receptor is expressed as a fusion protein containing the Fc domain of human IgG (an immunoadhesin). Receptor-ligand binding is detected by allowing interaction of the immunoadhesin polypeptide with cells (e.g. Cos cells) expressing candidate PRO polypeptide receptors and visualization of bound immunoadhesin with fluorescent reagents directed toward the Fc fusion domain and examination by microscope. Cells expressing candidate receptors are produced by transient transfection, in parallel, of defined subsets of a library of cDNA expression vectors encoding PRO polypeptides that may function as receptor molecules. Cells are then incubated for 1 hour in the presence of the PRO polypeptide immunoadhesin being tested for possible receptor binding. The cells are then washed and fixed with paraformaldehyde. The cells are then incubated with fluorescent conjugated antibody directed against the Fc portion of the PRO polypeptide immunoadhesin (e.g. FITC conjugated goat anti-human-Fc antibody). The cells are then washed again and examined by microscope. A positive interaction is judged by the presence of fluorescent labeling of cells transfected with cDNA encoding a particular PRO polypeptide receptor or pool of receptors and an absence of similar fluorescent labeling of similarly prepared cells that have been transfected with other cDNA or pools of cDNA. If a defined pool of cDNA expression vectors is judged to be positive for interaction with a PRO polypeptide immunoadhesin, the individual cDNA species that comprise the pool are tested individually (the pool is “broken down”) to determine the specific cDNA that encodes a receptor able to interact with the PRO polypeptide immunoadhesin.
(§2) In another embodiment of this assay, an epitope-tagged potential ligand PRO polypeptide (e.g., 8 histidine “His” tag) is allowed to interact with a panel of potential receptor PRO polypeptide molecules that have been expressed as fusions with the Fc domain of human IgG (immunoadhesins). Following a 1 hour co-incubation with the epitope tagged PRO polypeptide, the candidate receptors are each immunoprecipitated with protein A beads and the beads are washed. Potential ligand interaction is determined by Western blot analysis of the immunoprecipitated complexes with antibody directed towards the epitope tag. An interaction is judged to occur if a band of the anticipated molecular weight of the epitope tagged protein is observed in the Western blot analysis with a candidate receptor, but is not observed to occur with the other members of the panel of potential receptors.

Experiment [3] addresses human IL-17 receptor (IL-17R, PRO1) (Homo sapiens, UniProt Q96F46). Described as above. Format: binding. On the procedure:
as §1, §2

Entries after “also recorded” stand apart in the source; their conditions may differ. Like-named read-outs stand apart in the source and are kept apart here.

B1: PRO1122 (IL-17C ligand) (ligand, UniProt Q9P0M4 19-197, looked up)
chain: HHDPSLRGHPHSHGTPHCYSAEELPLGQAPPHLLARGAKWGQALPVALVSSLEAASHRGRHERPSATTQCPVLRPEEVLEADTHQRSISPWRYRVDTDEDRYPQKLAFAECLCRGCIDARTGRETAALNSVRLLQSLLVLRRRPCSRDGSGLPTPGAFAFHTEFIHVPVGCTCVLPRSV
For B1, the binding result in experiment [1] is on record as “no binding”. Also, the “binding to IL-17RH2 receptor (PRO20040)” value in experiment [2] is listed as “do not interact”. The “binding to human IL-17 receptor (IL-17R, PRO1)” value (“binding to human IL-17 receptor” below) in experiment [3] was “do not interact”; in experiment [3] (listed as PRO1122) it was “do not bind”.

B2: IL-17F: human IL-17F ligand, SEQ ID NO:4 (protein, listed as Homo sapiens)
chain: MTVKTLHGPAMVKYLLLSILGLAFLSEAAARKIPKVGHTFFQKPESCPPVPGGSMKLDIGIINENQRVSMSRNIESRSTSPWNYTVTWDPNRYPSEVVQAQCRNLGCINAQGKEDISMNSVPIQQETLVVRRKHQGCSVSFQLEKVLVTVGCTCVTPVIHHVQ
For B2, the “binding to IL-17RH2 receptor (PRO20040)” value in experiment [2] is reported as “has been shown to bind; also recorded: binds to”; in experiment [2] (listed as PRO20110), “binds to”. Also, in experiment [3], the “binding to human IL-17 receptor” value is given as “binds to”.

B3: PRO21175 (IL-17D ligand) (ligand, UniProt Q8TAD2 16-202, looked up)
chain: AGAPRAGRRPARPRGCADRPEELLEQLYGRLAAGVLSAFHHTLQLGPREQARNASCPAGGRPADRRFRPPTNLRSVSPWAYRISYDPARYPRYLPEAYCLCRGCLTGLFGEEDVRFRSAPVYMPTVVLRRTPACAGGRSVYTEAYVTIPVGCTCVPEPEKDADSINSSIDKQGAKLLLGPNDAPAGP
B3: the binding result in experiment [1] was “no binding”. Also, the “binding to IL-17RH2 receptor (PRO20040)” value in experiment [2] is recorded as “do not interact”. In addition, in experiment [3], the “binding to human IL-17 receptor” value is recorded as “do not interact”.

Source of the values: US20070160576A1, “IL-17A/F heterologous polypeptides and therapeutic uses thereof” (Genentech, Inc., priority 2001, published 2007).
